Measured values reported in publication doi:10.1101/2024.02.13.580058 (bioRxiv, 2024).
Changes are numbered by the printed parent chain.

B1: Bess1 (antibody)
VH: QVQLRESGPSLVKPSQTLSLTCTVSGISLSDKAVGWVRQAPGKALEWLGSIDAGGSTGYNPGLKSRLSITTDNSKSQVSLSMSGVTTEDSATYYCTTVHQKTLKQKTCPEGYSDDDGCDDSYGCGDDCCCYGGYSDYGGYEYACCSRTYTYEFHVDAWGQGLLVTVSS
VL: QAVLNQPSSVSGSLGQRVSITCSGSSSNVGNGYVSWYQLIPGSAPRTLIYGDTSRASGVPDRFSGSRSGNTATLTISSLQAEDEADYFCASAEDSSSNAVFGSGTTLTVL
notes: also called Bess1_WT; source: Expi293 or 293F cells, transient, purified (Protein A Sepharose or Praesto AP)
B2: ElsE4 (antibody)
VH: QVQLRESGPSLVKPSQTLSLTCTTSGFSLSDKTVGWVRQAPGKALEWLGSRDSSGKTAYNPGLKSRLSITNDNSKSQVSLSLSSVSTADSATYYCTTVHQQTRKSCPDGWSFGWDCGFHGYGVGDCYDDCTDILSSQTLSPTDTYELHIDAWGQGLLVTVSS
VL: B1 VL with N5T, R17T, S25T, S35T, L39V, G42R, Y50F, S95T, A99V
notes: source: Expi293 or 293F cells, transient, purified (Protein A Sepharose or Praesto AP)
B3: Bess6 (antibody)
VH: KVQLRESGPSLVKPSQTLSLICTVSGFSLSDKAVGWVRQAPGKALEWLGSIDTAGTTDHHPGLKSRLSITKDNSKNQVSLSLSSVTTEDSATYYCTTVHQPTSKQYSCPDGASVRTGGGWRWLCRGHDCCCVVEYIAYEQTPCTLTRTYEWHIDAWGQGLLVTVSS
VL: B1 VL
notes: as for B2
B4: ElsE3 (antibody)
VH: KVQLQESGPSLVKPSQTLSLTCATSGFSLSDKTVGWVRQAPGKALEWLGSIDTSGNTGYNPLLKFRLSITKDNSKSQVSLSLSSATTADSATYYCTTVHQQTRKSCPDGYSFGYDCGFHGYGSEDCYPDCSDILTSDVVGPIDAYELHVDAWGQGLLVTVSS
VL: B1 VL with N5T, S27N, L39V, S77T, A90S, V100I
notes: as for B2
B5: ElsE5 (antibody)
VH: QVQLQESGPSLVKPSQTLSLTCTTSGFSLSDKTVGWVRQAPGKALEWLGSIDTSGRTGYNPGLKSRLDITKDNPKRQVSLSLSSVTTADSATYYCTTVHQQTRKGCPDGWSFGWDCGFHGYGREDCYDDCTDILSSQTLSPTDTYEFHVDAWGQGLLVTVSS
VL: B1 VL with N5T, S54T, T75S, S77T, A85T
notes: as for B2
B6: ElsE10 (antibody)
VH: KVQLRESGPSLVKPSQTLSLTCTTSGFSLSEKTVGWVRQAPGKPLEWLGTINTSGSGGSNPGLKSRLHITKDNSQSQVSLSLSSVTTADSATYYCTTVHQQTRKRCPDGWSFGWDCGFSGYGSEDCYDDCTDILSSNTLSPTDTYELHVDAWGQGLLVTVSS
VL: B1 VL with N5T, D94G, A99I, S103V
notes: as for B2
B7: Bess5 (antibody)
VH: QVQLQESGPSLVKPSQTLSLMCAASGFSLSDKTVGWVRQAPGKALEWLGSIDSSGSTGYNPGLKSRLTITKDSSKSQVSLSVSSVTTEDSATYYCTTVHQQTRNKEKTCPGGEDCGIGCCCAGCSATDYGCWDGSSYASYSYIYTYDIHVDAWGQGLLVTVSS
VL: B1 VL
notes: as for B2
B8: ElsE1 (antibody)
VH: KVQLRESGPSLIKPSQTLSLTCTTSIFSLIDKTVGWVRQAPGKSLEWLGSIDTSGNTGYNPGLKSRLHITKDNSRSQVSLSLSSVTTADSATYYCTTVHQQTRKGCPDGWRFGWDCGFHGYGQEDCYEDCIDILSSQTLSPTDAYEFHVDAWGQGLLVTVSS
VL: B1 VL with N5T, S27G, S77T, A85T, D94G, S97N
notes: as for B2
B9: Bess3 (antibody)
VH: QVQLRESGPSLVKPSQTLSLTCTVSGFSLSDKAVGWVRQAPGKALEWLGSIDNGENIGYNPGLKSRLSITKDNSKSQVSLSVSSVTTEDSATYYCATVHQTTKTTKQCPDGYNYDDGCASDLGCGEADCCCYGGYDDYGGYLYSCCSYTYTYEWYVDTWGQGLLVTVSS
VL: B1 VL
notes: as for B2
B10: ElsE8 (antibody)
VH: KVQLQESGPSLVKPSQTLSLTCTTSGFSLSDKGIAWVRQAPGKALEWLGSTDTTGSTNYNPGLKSRVIVTKDNSKSQVSLSLSSVTIADSATYYCTAVVQETRKSCPDGWRFGWDCGFHGYGTEDCYEDCVDILSSETVSSTDRYELHVDAWGQGLLVTVSS
VL: B1 VL with N5S, L39Q, I40F, S54G, A56S, T75S, D94G, S97K, N98H
notes: as for B2
B11: Bess8 (antibody)
VH: QVQLRESGPSLVKPSQTLSLTCTVSGFSLSDKAVGWVRQAPGKALEWLGSIDIGGSTGYNPGLKSRLSITKDNSKSQVSLSVTSVTTEDSATYYCTIVYQTTKTTKKCPDGYNYDDGCASDLGCGEADCCCYGGDDEYAGHLYSCCSYSHTYEWYVGAWGQGLLVTVSS
VL: B1 VL
notes: as for B2
B12: Bess7 (antibody)
VH: QVQLRESGPSLVKPSQTLSLTCTVSGFSLNDKAVGWVRQAPGRALEWLGSVSTGGSTTYNPGLKPRLSITKDNSKSQISLTVTSVTTEDSATYYCTTVHQTTKTTKECPEGYNWDDGCGSELGCGGADCCCWGGVDEYAGDLYSCCSVAHTYEWYVDAWGQGLLVTVSS
VL: B1 VL
notes: as for B2
B13: Bess2 (antibody)
VH: B11 VH with Q1K, I53T, A91T, I97T, Y99H, D135Y, A139G, H141Y, H150Y, G157D
VL: B1 VL
notes: as for B2
B14: ElsE11 (antibody)
VH: KVQLRESGPSLVKPSQTLSLTCTTSGFSLSDKTVGWVRQAPGKALEWLGSTDTSGNTGYNPGLKSRLSITKDNSKSQVSLSVSSVSTADSATYYCTTVRQQTRKSCPDGWTLAKDCGFYGYGSEDCYDDCTDILSSNTLSPTTTHEFNVDAWGQGLLVTVSS
VL: B1 VL with N5T, V29T, Y33A, A56T, T71I, A85G, A90G, V100I
notes: as for B2
B15: ElsE6 (antibody)
VH: KVQLQESGPSLVKPSQTLSLTCTTSGFSLSDNAVGWVRQAPGKALEWLGSIDSGGSTGYNPGLKSRLSITKDNSKSQVSLSVSSVTTADSATYYCTTVHQQTRKSCPAGYTLAKDCGFYGYGSEDCYDDCSDILSSHTLSPTTTYELHVDAWGQGLLVTVSS
VL: B1 VL with N5T, S27T, S54N, A90L, V100I, T108I
notes: as for B2
B16: ElsE9 (antibody)
VH: KVQLRESGPSLVKPSQTLSLTCTTSGFSFSDKTVGWVRQAPGKALEWLGSIDTSGTTGYNPGLKSRLSITRDDSKSQVSLSLSSVTTADLATYYCTTVRQQVHKTCPQGWRFGWDCGFHGYGSDDCYEDCIDILSSQTLSAEDTYELHVDAWGQGLLVTVSS
VL: QAVLTQPQSVRGSLGQRVSITCSGSSSNVGNGYVSWYQLIPGSAPRTLMYGDTTRASGVPDRFSGSRSGNTATLTISSLQAEDEADYFCASADGSSLHVAFGSGTTLTVL
notes: as for B2
B17: ElsE7 (antibody)
VH: QVQLQESGPSLVKPSQTLSLTCTTSGFSLSDNTVGWVRQAPGKALQWLGSITPSGSTNYNPGLKSRLGITKDNSNSQVSLSLTSATAADSATYYCTTVHQQTRKSCPDGWMFGFDCGFHGWGSEDCVDDCSDILSAQTLSPIYTNAYHVDAWGQGLLVTVSS
VL: QAVLTQPSSVSGSLGQTVSITCSGLSNNGENGDVSWYQLIPGSAPHTLMYGDTSRASGVPDRFSGSRSGNTASLTISSLQAEDEADYFCASTGDEMISLLFGSGTTLTVL
notes: as for B2

Each binder was assayed against BG505 gp120 (HIV-1 isolate BG505 (clade A), UniProt Q2N0S6) (assay: ELISA; 250 ng BG505 gp120 coated on the plate; monoclonal antibodies from 20 µg/mL in seven 6-fold dilutions, 1 hr, room temperature; detected with alkaline phosphatase anti-human F(ab')2). Conditions: both partners purified.

Row | Binder | binding result
1 | B1 | no binding (tested: 20 µg/mL)
2 | B2 | no binding (tested: 20 µg/mL)
3 | B3 | no binding (tested: 20 µg/mL)
4 | B4 | no binding (tested: 20 µg/mL)
5 | B5 | no binding (tested: 20 µg/mL)
6 | B6 | no binding (tested: 20 µg/mL)
7 | B7 | no binding (tested: 20 µg/mL)
8 | B8 | no binding (tested: 20 µg/mL)
9 | B9 | no binding (tested: 20 µg/mL)
10 | B10 | no binding (tested: 20 µg/mL)
11 | B11 | no binding (tested: 20 µg/mL)
12 | B12 | no binding (tested: 20 µg/mL)
13 | B13 | no binding (tested: 20 µg/mL)
14 | B14 | no binding (tested: 20 µg/mL)
15 | B15 | no binding (tested: 20 µg/mL)
16 | B16 | no binding (tested: 20 µg/mL)
17 | B17 | no binding (tested: 20 µg/mL)
